According to patent US6524820B1, “Lectins and coding sequences” (University of Georgia Research Foundation, Inc., priority 1997, dated 2003):
“Also recorded” adds a separate entry of the source.

Tests used:
[1] = test system: trypsinized, glutaraldehyde-fixed rabbit erythrocytes; assay: Erythrocyte agglutination assay; format: cell-based
Procedure: The assay was performed essentially as described using trypsinized, glutaraldehyde-fixed rabbit erythrocytes [Barondes and Roberson (1987) Methods Enzymol. 138, 516-20] in TCS buffer (10 mM Tris, pH 7.6, 10 mM CaCl2, 150 mM NaCl). To compare the agglutination properties of both the purified and recombinant lectins, the two lectins were assayed under similar conditions. Because the eluted recombinant lectin was in 8 M urea, a solution of purified non-recombinant lectin was also brought to 8 M with a concentrated urea solution. The agglutination assay was performed using […] of either recombinant or native XL35 lectin in […] TCS and 8 M urea was added to wells of a 96-well microtiter plate. Next, […] of TCS alone or TCS containing 0.4 M EDTA or 1.0 M melibiose or 1.0 M sucrose was added to the wells and mixed with the lectin solution. To this solution, 50 ml of a 1:1 suspension of trypsinized, glutaraldehyde-fixed rabbit erythrocytes in TCS was added and the contents of the wells were mixed by trituration. The final concentration of urea in the wells was 2 M, while that of EDTA was 0.10 M and that of melibiose and sucrose were 0.25 M. Agglutination activity was scored after 1.5 hr. at room temperature using an inverted microscope on low power. […]

[2] = Solubility of recombinant lectins in urea; format: physicochemical; conditions: bacterially expressed recombinant lectin
Procedure: Expression of human HL-3 and HL-13 coding sequences was performed using the same method for expression of XL-35. […] Purification and renaturation carried out as for XL35.

[3] = Melibiose affinity chromatography (binding to immobilized melibiose); conditions: in the presence of Ca2+
Procedure: The rabbit, mouse, Xenopus laevis heart extracts, and various in vitro translation products were applied to a column of immobilized melibiose-agarose to analyze carbohydrate binding specificity. The heart extracts of rabbit, mouse, and Xenopus laevis were prepared by the method as described above and applied to a melibiose affinity column (total volume, 1 ml on Econo column) that was pre-equilibrated with TCS. After washing with 10 ml of TCS containing 0.3 M sucrose, bound protein was eluted with TCS containing 0.1 M EDTA. One ml of each fraction was collected and subjected to western blotting followed by 4-15% SDS-PAGE. Each 30 μl of in vitro translation product was diluted with 2×TCS (1:1) and applied to the melibiose column using same method. After separation of fractions on 4-15% SDS-PAGE, the results were analyzed by autoradiography.

B1: XL35: soluble, calcium-dependent lectin from Xenopus laevis oocytes, SEQ ID NO:2 (protein)
chain: MLVHILLLLVTGGLSQSCDPVVIVASKNMVKQLDCDKFRNCKEIKDSNEEAQDGIYTLTSPDGISYQTFCDMTTNGGGWTLVASVHENNMAGKCTIGDRWSSQQGNRADYPEGDGNWANYNTFGSAGGATSDDYKNPGYYDIEAYNLGVWHVPNKTPLSVWRNSSLQRYRTTDGILFKHGGNLFSLYRIYPVKYGIGSCSKDSGPTVPVVYDLGSANLTASFYSPGFRSQFTPGYIQFRPINTEKAALALCPGMKMESCNVEHVCIGGGGYFPEADPRQCGDFAAYDFNGYGTKKFNSAGIEITEAAVLLFYL
Question: Which “agglutination activity retained relative to assay in TCS alone” value ([1]; after 1.5 hr in TCS plus 2 M urea) does the source give for B1 here?
Answer: 25-50%

Question: And the “agglutination of trypsinized, fixed rabbit erythrocytes” value ([1]; in 2 M urea)?
Answer: active

Question: What about the “concentration of urea required for solution” value [2] of the same molecule?
Answer: 2 M

B2: HL-3: human calcium-dependent lectin family member, homolog of XL35, SEQ ID NO:4 (protein)
chain: MNQLSFLLFLIATTRGWSTDEANTYFKEWTCSSSPSLPRSCKEIKDECPSAFDGLYFLRTENGVIYQTFCDMTSGGGGWTLVASVHENDMRGKCTVGDRWSSQQGSKADYPEGDGNWANYNTFGSAEAATSDDYKNPGYYDIQAKDLGIWHVPNKSPMQHWRNSSLLRYRTDTGFLQTLGHNLFGIYQKYPVKYGEGKCWTDNGPVIPVVYDFGDAQKTASYYSPYGQREFTAGFVQFRVFNNERAANALCAGMRVTGCNTEHHCIGGGGYFPEASPQQCGDFSGFDWSGYGTHVGYSSSREITEAAVLLFYR
Question: Which “binding to immobilized melibiose” value [3] does the source give for B2 here?
Answer: no in vitro translation products of HL-3 and HL-13 bound; also recorded: do not appear to bind specifically

B3: HL-13: human homolog of XL35 expressed in small intestine, SEQ ID NO:6 (protein)
chain: MLSMLRTMTRLCFLLFFSVATSGCSAAAASSLEMLSREFETCAFSFSSLPRSCKEIKERCHSAGDGLYFLRTKNGVVYQTFCDMTSGGGGWTLVASVHENDMRGKCTVGDRWSSQQGNKADYPEGDGNWANYNTFGSAEAATSDDYKNPGYYDIQAKDLGIWHVPNKSPMQHWRNSALLRYRTNTGFLQRLGHNLFGIYQKYPVKYRSGKCWNDNGPAIPVVYDFGDAKKTASYYSPYGQREFVAGFVQFRVFNNERAANALCAGIKVTGCNTEHHCIGGGGFFPQGKPRQCGDFSAFDWDGYGTHVKSSCSREITEAAVLLFYR
Question: For B3, which “binding to immobilized melibiose” value [3] is on record?
Answer: no in vitro translation products of HL-3 and HL-13 bound; also recorded: do not appear to bind specifically
